Values of other authors, collected in paper PMC8990303.
Where two headings read alike, the source gives them in different places. Blank lines part the entries; values can stand above or below the substance they belong to.

Legend:
[1] = target: Factor XIa (Homo sapiens) (UniProt P03951)
[2] = target: Factor XIIa (Homo sapiens) (UniProt P00748)
[3] = target: Bovine pancreatic trypsin (Bos taurus) (UniProt P00760)
[4] = target: Porcine pancreatic alpha-amylase (PPA) (Sus scrofa) (UniProt P00690)
[5] = target: Bovine trypsin (Bos taurus) (UniProt P00760)
[6] = target: Yellow mealworm alpha-amylase (TMA) (Tenebrio molitor) (UniProt P56634)
UniProt P56634, sequence (P56634 whole entry): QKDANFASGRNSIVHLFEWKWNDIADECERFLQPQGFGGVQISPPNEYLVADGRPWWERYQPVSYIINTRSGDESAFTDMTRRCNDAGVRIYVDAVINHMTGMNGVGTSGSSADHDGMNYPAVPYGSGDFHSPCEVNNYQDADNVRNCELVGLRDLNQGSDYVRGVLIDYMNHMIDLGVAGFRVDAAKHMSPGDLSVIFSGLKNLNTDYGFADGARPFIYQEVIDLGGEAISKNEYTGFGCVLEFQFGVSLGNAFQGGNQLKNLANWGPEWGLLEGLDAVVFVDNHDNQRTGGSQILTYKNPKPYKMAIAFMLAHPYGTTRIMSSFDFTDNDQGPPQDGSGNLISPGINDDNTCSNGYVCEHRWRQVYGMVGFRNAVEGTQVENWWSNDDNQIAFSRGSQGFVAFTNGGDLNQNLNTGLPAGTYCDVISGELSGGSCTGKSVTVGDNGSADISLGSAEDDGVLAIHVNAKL

[7] = target: Porcine pancreatic alpha-amylase (PPA) (Sus scrofa) (UniProt P00690); remark: listed apart in the source
[8] = target: Yellow mealworm alpha-amylase (TMA) (Tenebrio molitor) (UniProt P56634); remark: listed apart in the source
[9] = target: Human salivary alpha-amylase (HSA) (Homo sapiens) (UniProt P0DUB6)
UniProt P0DUB6, sequence (P0DUB6 16-511): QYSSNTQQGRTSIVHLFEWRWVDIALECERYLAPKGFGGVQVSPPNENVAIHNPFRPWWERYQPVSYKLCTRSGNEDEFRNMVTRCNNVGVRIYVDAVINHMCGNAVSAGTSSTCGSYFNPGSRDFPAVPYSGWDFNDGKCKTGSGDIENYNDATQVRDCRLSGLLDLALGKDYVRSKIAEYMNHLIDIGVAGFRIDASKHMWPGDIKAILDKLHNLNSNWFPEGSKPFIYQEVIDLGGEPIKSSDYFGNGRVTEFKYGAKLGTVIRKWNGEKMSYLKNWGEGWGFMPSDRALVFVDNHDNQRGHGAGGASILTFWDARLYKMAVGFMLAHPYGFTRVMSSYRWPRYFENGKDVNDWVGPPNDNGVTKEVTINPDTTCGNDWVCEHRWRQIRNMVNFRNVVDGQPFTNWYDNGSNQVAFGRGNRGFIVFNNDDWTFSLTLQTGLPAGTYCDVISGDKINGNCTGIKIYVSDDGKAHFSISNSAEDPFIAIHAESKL

[10] = target: Porcine trypsin (Sus scrofa) (UniProt P00761)
UniProt P00761, sequence (P00761 9-231): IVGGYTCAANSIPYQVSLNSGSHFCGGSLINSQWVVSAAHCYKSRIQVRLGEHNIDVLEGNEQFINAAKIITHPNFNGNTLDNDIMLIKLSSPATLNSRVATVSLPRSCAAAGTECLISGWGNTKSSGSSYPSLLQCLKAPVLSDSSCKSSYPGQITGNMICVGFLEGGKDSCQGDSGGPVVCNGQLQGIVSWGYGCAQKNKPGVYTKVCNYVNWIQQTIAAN

[11] = target: Porcine alpha-amylase (Sus scrofa) (UniProt P00690)
[12] = target: Porcine alpha-amylase (Sus scrofa) (UniProt P00690); remark: listed apart in the source
[13] = target: Porcine trypsin (Sus scrofa) (UniProt P00761); remark: listed apart in the source

UniProt P00748, sequence (P00748 whole entry, looked up): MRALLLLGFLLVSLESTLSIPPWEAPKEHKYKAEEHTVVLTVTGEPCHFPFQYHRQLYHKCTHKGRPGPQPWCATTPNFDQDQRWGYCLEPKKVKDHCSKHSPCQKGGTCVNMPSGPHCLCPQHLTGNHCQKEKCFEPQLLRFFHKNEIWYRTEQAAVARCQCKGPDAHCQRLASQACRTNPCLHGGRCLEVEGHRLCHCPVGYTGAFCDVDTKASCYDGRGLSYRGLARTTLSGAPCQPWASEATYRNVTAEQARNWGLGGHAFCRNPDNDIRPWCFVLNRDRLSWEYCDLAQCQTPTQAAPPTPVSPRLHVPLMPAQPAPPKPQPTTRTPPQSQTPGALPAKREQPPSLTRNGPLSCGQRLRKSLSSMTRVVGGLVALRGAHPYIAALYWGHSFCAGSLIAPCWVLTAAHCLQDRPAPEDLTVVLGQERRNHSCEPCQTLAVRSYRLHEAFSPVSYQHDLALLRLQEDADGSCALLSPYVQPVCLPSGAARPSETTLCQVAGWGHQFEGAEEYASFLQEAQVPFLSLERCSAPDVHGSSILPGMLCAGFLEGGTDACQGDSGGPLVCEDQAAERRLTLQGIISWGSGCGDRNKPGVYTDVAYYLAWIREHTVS
UniProt P03951, sequence (P03951 388-625): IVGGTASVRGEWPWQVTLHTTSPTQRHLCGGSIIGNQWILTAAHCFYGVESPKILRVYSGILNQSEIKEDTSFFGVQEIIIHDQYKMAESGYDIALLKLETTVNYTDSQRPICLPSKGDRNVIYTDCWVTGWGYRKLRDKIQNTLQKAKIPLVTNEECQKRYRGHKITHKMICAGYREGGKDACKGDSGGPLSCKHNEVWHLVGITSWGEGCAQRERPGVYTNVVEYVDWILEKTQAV

Ki [1]: 5400 nM
Ki [2]: 1 nM
Ki [3]: 2.1 nM
Substance: Corn Hageman factor inhibitor (CHFI) (from UniProt P01088)

Ki [4]: 11 nM
Ki [5]: 1.2 nM
Substance: Ragi bifunctional alpha-amylase/trypsin inhibitor (RBI) (from UniProt P01087)

Ki [6]: 0.13 nM
Substance: 0.28 alpha-amylase inhibitor (WMAI-1) (from UniProt P01083)

Ki [7]: 57.3 nM
Ki [8]: 0.85 nM
Ki [9]: 0.29 nM
Substance: 0.19 alpha-amylase inhibitor (from UniProt P01085)

Ki [10]: 10.4 nM
Kd [11]: 340 nM
Ki [12]: 600 nM
Kd [13]: 36 nM
Substance: CM3 (from UniProt P17314)
